# Results from paper PMC10143822, “Structural Adaptation of the Single-Stranded DNA-Binding Protein C-Terminal to DNA Metabolizing Partners Guides Inhibitor Design” (Pharmaceutics, 2023).
# Where a SMILES comes first, the peptide text is derived from it. Primed or numbered codes have the meaning given here. Where no end group is shown, it is not given here. [ ]: non-standard residue; d: D form. 5,6‑carboxyfluorescein = 5,6-carboxyfluorescein; Phe(4-CF3) = N[C@@H](Cc1ccc(C(F)(F)F)cc1)C(=O)O; Phe(3-Cl) = N[C@@H](Cc1cccc(Cl)c1)C(=O)O; Phe(4-Cl) = N[C@@H](Cc1ccc(Cl)cc1)C(=O)O; β3hD = NC(CC(=O)O)CC(=O)O; Nle = CCCC[C@H](N)C(=O)O; Pip′ = not defined here
# T1: Escherichia coli RecO (Escherichia coli, UniProt P0A7H3 1-242)
# T1 construct: RecO of Escherichia coli, synthetic gene in pET28a+ with a TEV site at the 5' end; The His tag was cut off with TEV protease only for the purified protein; source: E. coli Rosetta, purified (Ni-NTA, heparin); also in cell lysate (pull-down); not shown: His tag, N-terminal, cleaved
# T1 sequence: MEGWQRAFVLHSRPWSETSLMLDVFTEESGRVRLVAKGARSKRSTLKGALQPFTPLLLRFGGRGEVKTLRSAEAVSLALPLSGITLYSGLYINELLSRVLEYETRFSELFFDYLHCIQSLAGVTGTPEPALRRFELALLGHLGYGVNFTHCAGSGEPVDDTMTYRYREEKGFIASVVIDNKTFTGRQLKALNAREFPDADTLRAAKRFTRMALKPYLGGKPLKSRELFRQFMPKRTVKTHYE
# T2: E. coli Exonuclease I (E. coli, UniProt P04995 1-471)
# T2 construct: Exonuclease I of E. coli, from plasmid pET14b-E. coli Exonuclease I (Addgene 104552); The His tag was cut off with thrombin only for the purified protein; also called ExoI; Exol; source: E. coli BL21 (DE3) pLysS, purified (Ni-NTA, heparin); also in cell lysate (pull-down)
# T2 sequence: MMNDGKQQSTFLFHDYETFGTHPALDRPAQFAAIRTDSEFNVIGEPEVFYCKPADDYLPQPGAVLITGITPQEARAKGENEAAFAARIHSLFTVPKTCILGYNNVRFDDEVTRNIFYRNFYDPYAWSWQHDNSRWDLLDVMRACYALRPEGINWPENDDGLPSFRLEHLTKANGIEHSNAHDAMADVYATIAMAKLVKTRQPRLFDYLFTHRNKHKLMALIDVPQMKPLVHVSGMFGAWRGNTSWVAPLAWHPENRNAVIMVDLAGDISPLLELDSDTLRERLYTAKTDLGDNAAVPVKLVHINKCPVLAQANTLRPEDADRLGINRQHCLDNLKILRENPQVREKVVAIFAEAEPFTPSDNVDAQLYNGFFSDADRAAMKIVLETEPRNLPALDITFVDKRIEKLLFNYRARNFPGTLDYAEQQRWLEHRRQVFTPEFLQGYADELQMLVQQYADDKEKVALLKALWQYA
# Tests used:
# ExoI [1] = biological target: T3, ExoI (Escherichia coli, UniProt P04995); experiment: biochemical; format: binding, E. coli
# T3 construct: His-tag (cleaved yes); host or cells: E. coli BL21 (DE3) pLysS
# Method: Triplicate measurements were performed using a Clariostar Plus Microplate Reader in 384-well plates for all fluorescence anisotropy (FA) experiments. The settings were 25 °C, excitation at 485 nm, emission at 510 nm, settling time of 0.2 s, and 200 flashes per well.
# Competition fluorescence anisotropy experiments were carried out as follows: protein (0.5 μM either ExoI or RecO) was incubated with 50 nM F-wtSSB peptide and 0–500 μM unlabeled wtSSB (or a variant) peptide for 30 min at room temperature. For direct fluorescence anisotropy measurements, 16 µM ExoI and 7.5 µM RecO were used in the first well. After serial dilution, either 50 nM of F-mSSB or F-sSSB was added to the wells and then incubated for 30 min. Buffers used included 20 mM Tris-HCl (pH 8.0), 100 mM NaCl, 1 mM MgCl2, 1 mM 2-mercaptoethanol, 10% (v/v) glycerol, for ExoI and 20 mM Tris-HCl (pH 8.0), 200 mM NaCl, 1 mM 2-mercaptoethanol, 10% (v/v) glycerol, and 0.01% Triton-X 100 for RecO [37].
# Fluorescence anisotropy values were normalized and are shown as bound fractions (BF, %). BF=r−rmin/λ(rmax−r)+r−rmin, I=2∗PG+S, r=S−PG/I, where r: anisotropy, I: total intensity, P: perpendicular intensity, S: parallel intensity, G: an instrument factor set to 1, BF: ligand fraction bound, and λ=λbound/λunbound=1 .
# Competitive fluorescence anisotropy was analyzed in Origin Pro 9.5, and IC50 values were determined using the Logistic Nonlinear fit function and are shown as plots for each mutated position for each protein in Figures S4 and S6. EC50 values from direct fluorescence anisotropy titrations were plotted in Origin 9.5. Values were determined using the Logistics Nonlinear fit function.
# ExoI [2] = biological target: T3, ExoI; experiment: Isothermal titration calorimetry with ExoI; format: binding, E. coli
# Method: Isothermal titration calorimetry (ITC) experiments were performed using a MicroCal VP-ITC titration microcalorimeter. ExoI was dialyzed extensively against the indicated buffer and cleared through centrifugation at 14,000 rpm for 15 min at 4 °C. RecO was subjected to a quick buffer exchange using an Amicon Ultra ultrafiltration device (Sigma). Protein concentrations were determined after the buffer exchange procedure.
# The raw data were integrated using NITPIC [39]. The binding parameters, association equilibrium constant (KA), binding enthalpy (ΔH), and binding entropy (ΔS) were obtained by fitting the titration curves to a model of A + B = C in SEDPHAT [40]. Stoichiometry was fixed to 1:1 and the incompetent fraction was fitted for the protein concentration.
# Escherichia coli RecO [3] = biological target: T1, Escherichia coli RecO; experiment: fluorescence polarisation; competition fluorescence anisotropy: 0.5 µM RecO, 50 nM F-wtSSB tracer, 0–500 µM unlabeled peptide, 30 min at room temperature, read at 25 °C; 20 mM Tris-HCl pH 8.0, 200 mM NaCl, 1 mM 2-mercaptoethanol, 10% glycerol, 0.01% Triton-X 100; settings: both partners purified
# E. coli Exonuclease I [4] = biological target: T2, E. coli Exonuclease I; experiment: fluorescence polarisation; direct fluorescence anisotropy: ExoI serially diluted from 16 µM, 50 nM fluorescein-labelled peptide, 30 min, 25 °C; 20 mM Tris-HCl pH 8.0, 100 mM NaCl, 1 mM MgCl2, 1 mM 2-mercaptoethanol, 10% glycerol; settings: both partners purified
# Escherichia coli RecO [5] = biological target: T1, Escherichia coli RecO; experiment: fluorescence polarisation; direct fluorescence anisotropy: RecO serially diluted from 7.5 µM, 50 nM fluorescein-labelled peptide, 30 min, 25 °C; 20 mM Tris-HCl pH 8.0, 200 mM NaCl, 1 mM 2-mercaptoethanol, 10% glycerol, 0.01% Triton-X 100; settings: both partners purified
# Escherichia coli RecO [6] = biological target: T1, Escherichia coli RecO; experiment: ITC; peptide in the syringe titrated into RecO in the cell; 50 mM HEPES pH 7.5, 50 mM NaCl, 25% glycerol, 1 mM TCEP; model A + B = C, stoichiometry fixed to 1:1, incompetent fraction fitted; settings: both partners purified
# [7] = biological target: E1-sSSB with an N-terminal biotin tag, on Streptavidin DynaBeads (E. coli); experiment: affinity purification with mass spectrometry; pull-down: 1 µM biotin peptide on Streptavidin DynaBeads, 30 min with E. coli lysate holding 1 µM recombinant ExoI or RecO; on-pellet tryptic digestion, nanoLC-MS/MS
# E. coli Exonuclease I [8] = biological target: T2, E. coli Exonuclease I; experiment: ITC; peptide in the syringe titrated into ExoI in the cell; 20 mM Tris–HCl pH 8.0, 100 mM NaCl, 1 mM MgCl2, 4% glycerol, 1 mM β-mercaptoethanol; model A + B = C, stoichiometry fixed to 1:1, incompetent fraction fitted; settings: both partners purified
# E. coli Exonuclease I [9] = biological target: T2, E. coli Exonuclease I; experiment: fluorescence polarisation; competition fluorescence anisotropy: 0.5 µM ExoI, 50 nM F-wtSSB tracer, 0–500 µM unlabeled peptide, 30 min at room temperature, read at 25 °C; 20 mM Tris-HCl pH 8.0, 100 mM NaCl, 1 mM MgCl2, 1 mM 2-mercaptoethanol, 10% glycerol; settings: both partners purified
# [10] = biological target: R2-sSSB with an N-terminal biotin tag, on Streptavidin DynaBeads (E. coli); experiment: affinity purification with mass spectrometry; pull-down: 1 µM biotin peptide on Streptavidin DynaBeads, 30 min with E. coli lysate holding 1 µM recombinant ExoI or RecO; on-pellet tryptic digestion, nanoLC-MS/MS
# T3 sequence (P04995 whole entry): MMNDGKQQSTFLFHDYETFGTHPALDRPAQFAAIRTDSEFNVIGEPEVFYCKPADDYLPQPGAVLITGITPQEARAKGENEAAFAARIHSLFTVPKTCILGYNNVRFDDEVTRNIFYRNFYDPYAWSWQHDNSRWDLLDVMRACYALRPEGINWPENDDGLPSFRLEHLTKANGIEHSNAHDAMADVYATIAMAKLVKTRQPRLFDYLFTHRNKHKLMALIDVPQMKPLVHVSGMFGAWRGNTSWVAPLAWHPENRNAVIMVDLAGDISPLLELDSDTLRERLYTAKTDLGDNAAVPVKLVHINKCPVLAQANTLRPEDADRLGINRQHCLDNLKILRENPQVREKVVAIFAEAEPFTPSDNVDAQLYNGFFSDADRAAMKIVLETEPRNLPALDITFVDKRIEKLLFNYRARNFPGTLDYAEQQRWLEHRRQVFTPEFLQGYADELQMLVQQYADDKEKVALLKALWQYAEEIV
molecule,measurement,setting,value
CC[C@H](C)[C@H](NC(=O)[C@H](CC(=O)O)NC(=O)[C@H](CC(=O)O)NC(=O)[C@H](CC(=O)O)NC(=O)[C@H](Cc1ccc(C(F)(F)F)cc1)NC(=O)[C@H](CC(=O)O)NC(C)=O)C(=O)N1CCC[C@H]1C(=O)N[C@@H](Cc1ccc(C(F)(F)F)cc1)C(=O)O [E2-sSSB-Ct] (Ac-D[Phe(4-CF3)]DDDIP[Phe(4-CF3)]-OH),IC50,ExoI [1],350 nM
same,Kd,ExoI [2],40 nM
"Ac-DFDDDLPF (E. coli SSB C-terminal tip (SSB-Ct), residues 171-178; numbers count on: the octapeptide (position 1 = SSB residue 171); also called isoleucine to leucine at position 6; source: synthetic peptide) [mSSB-Ct Leu6 (unlabelled single mutant)]",IC50,Escherichia coli RecO [3],3220 nM
"{5,6‑carboxyfluorescein}-DFDDD[Nle]PF [F-nLe6 (fluorescein-labelled single mutant)]",EC50,E. coli Exonuclease I [4],200 ± 10 nM
same,EC50,Escherichia coli RecO [5],200 ± 10 nM
"Ac-D[Phe(4-Cl)]DDDIP[Phe(3-Cl)] (SSB-Ct of E. coli SSB (residues 171-178), printed in three-letter code; F2 stands for 4Cl-Phe, F8 for 3Cl-Phe; numbers count on: the octapeptide (position 1 = SSB residue 171); source: synthetic peptide) [R2-sSSB-Ct (Asp–4Cl-Phe–Asp–Asp–Asp–Ile–Pro–3Cl-Phe)]",IC50,Escherichia coli RecO [3],590 nM
same,Kd,Escherichia coli RecO [6],40 nM
same,dH,Escherichia coli RecO [6],-23.5 kcal/mol
same,stoichiometry N,Escherichia coli RecO [6],1
E. coli Exonuclease I (enzyme) MMNDGKQQSTFLFHDYETFGTHPALDRPAQFAAIRTDSEFNVIGEPEVFYCKPADDYLPQPGAVLITGITPQEARAKGENEAAFAARIHSLFTVPKTCILGYNNVRFDDEVTRNIFYRNFYDPYAWSWQHDNSRWDLLDVMRACYALRPEGINWPENDDGLPSFRLEHLTKANGIEHSNAHDAMADVYATIAMAKLVKTRQPRLFDYLFTHRNKHKLMALIDVPQMKPLVHVSGMFGAWRGNTSWVAPLAWHPENRNAVIMVDLAGDISPLLELDSDTLRERLYTAKTDLGDNAAVPVKLVHINKCPVLAQANTLRPEDADRLGINRQHCLDNLKILRENPQVREKVVAIFAEAEPFTPSDNVDAQLYNGFFSDADRAAMKIVLETEPRNLPALDITFVDKRIEKLLFNYRARNFPGTLDYAEQQRWLEHRRQVFTPEFLQGYADELQMLVQQYADDKEKVALLKALWQYA,fold enrichment as compared to wtSSB-Ct,[7],2 fold
Ac-E[Phe(4-CF3)]D[β3hD]EL[Pip′][Phe(4-CF3)] (not fully specified; printed as E1-sSSB-Ct (Glu–4-CF3-Phe–Asp–β^3-Asp–Glu–Leu–Pip–4-CF3-Phe)) [E1-sSSB-Ct (Glu–4-CF3-Phe–Asp–β^3-Asp–Glu–Leu–Pip–4-CF3-Phe)],Kd,E. coli Exonuclease I [8],20 nM
same,dH,E. coli Exonuclease I [8],-17.4 kcal/mol
same,stoichiometry N,E. coli Exonuclease I [8],1
same,IC50,E. coli Exonuclease I [9],170 nM
"{5,6‑carboxyfluorescein}-GGDFDDDIPF (two glycines between the 5,6-carboxyfluorescein and the peptide; also called F-SSB-Ct; F-wtSSB-Ct; source: synthetic peptide (solid phase, HPLC purified)) [fluorescein-labeled wtSSB-Ct]",EC50,E. coli Exonuclease I [4],350 ± 40 nM
same,EC50,Escherichia coli RecO [5],370 ± 30 nM
"{5,6‑carboxyfluorescein}-GGDFDDEIPF (two glycines between the 5,6-carboxyfluorescein and the peptide; E. coli SSB-Ct, residues 171-178; numbers count on: the octapeptide (position 1 = SSB residue 171); One of Compounds 54-62 of the Supplementary Material; also called F-mSSB Glu5; source: synthetic peptide) [F-Glu5 (fluorescein-labelled single mutant)]",EC50,E. coli Exonuclease I [4],110 ± 10 nM
same,EC50,Escherichia coli RecO [5],200 ± 20 nM
Ac-DFDDD[Nle]PF [mSSB-Ct nLe6 (unlabelled single mutant)],IC50,Escherichia coli RecO [3],2550 nM
Escherichia coli RecO (natural protein) MEGWQRAFVLHSRPWSETSLMLDVFTEESGRVRLVAKGARSKRSTLKGALQPFTPLLLRFGGRGEVKTLRSAEAVSLALPLSGITLYSGLYINELLSRVLEYETRFSELFFDYLHCIQSLAGVTGTPEPALRRFELALLGHLGYGVNFTHCAGSGEPVDDTMTYRYREEKGFIASVVIDNKTFTGRQLKALNAREFPDADTLRAAKRFTRMALKPYLGGKPLKSRELFRQFMPKRTVKTHYE,fold enrichment as compared to wtSSB-Ct,[10],10 fold
